In patent US20090042786A1:

Biological target: human Factor X activated (human) (UniProt P00742)
Test: cell-based or functional assay

Sequence of UniProt P00742 (P00742 235-488 limits assumed): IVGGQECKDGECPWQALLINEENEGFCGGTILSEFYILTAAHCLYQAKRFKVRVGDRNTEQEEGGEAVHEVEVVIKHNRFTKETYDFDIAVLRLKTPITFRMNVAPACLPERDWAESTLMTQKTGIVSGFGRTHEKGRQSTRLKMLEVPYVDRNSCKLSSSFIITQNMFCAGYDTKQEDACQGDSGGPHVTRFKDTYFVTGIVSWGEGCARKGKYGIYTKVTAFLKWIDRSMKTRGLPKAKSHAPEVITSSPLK

Amblyomin-X recombinant protein
inhibition of the amidolytic activity of human Factor X activated (dose at which inhibition is seen): 5 to 10 µM
